From patent US10087225B2, “Formulation of MK2 inhibitor peptides” (MOERAE MATRIX, INC., priority 2015, dated 2018) come the findings set out here.

Among the targets are PAK2(h) (Homo sapiens, UniProt Q13177); JAK2(h) (Homo sapiens, UniProt O60674); MSSK1(h) (Homo sapiens, UniProt Q9UPE1); PKCδ(h) (Homo sapiens, UniProt Q05655); EGFR(L861Q)(h) (Homo sapiens, UniProt P00533, L861Q); PTK5(h) (Homo sapiens, UniProt P42685); CSK(h) (Homo sapiens, UniProt P41240); CHK2(I157T)(h) (Homo sapiens, UniProt O96017, I157T).
Holding throughout (assay): Kinase Profiling Assay
Holding throughout (type): biochemical
Common to all, as to settings: for % activity: 100 μM

The target of a further test is T1, TAO2(h) (Homo sapiens, UniProt Q9UL54).
T1 sequence (Q9UL54 1-1235): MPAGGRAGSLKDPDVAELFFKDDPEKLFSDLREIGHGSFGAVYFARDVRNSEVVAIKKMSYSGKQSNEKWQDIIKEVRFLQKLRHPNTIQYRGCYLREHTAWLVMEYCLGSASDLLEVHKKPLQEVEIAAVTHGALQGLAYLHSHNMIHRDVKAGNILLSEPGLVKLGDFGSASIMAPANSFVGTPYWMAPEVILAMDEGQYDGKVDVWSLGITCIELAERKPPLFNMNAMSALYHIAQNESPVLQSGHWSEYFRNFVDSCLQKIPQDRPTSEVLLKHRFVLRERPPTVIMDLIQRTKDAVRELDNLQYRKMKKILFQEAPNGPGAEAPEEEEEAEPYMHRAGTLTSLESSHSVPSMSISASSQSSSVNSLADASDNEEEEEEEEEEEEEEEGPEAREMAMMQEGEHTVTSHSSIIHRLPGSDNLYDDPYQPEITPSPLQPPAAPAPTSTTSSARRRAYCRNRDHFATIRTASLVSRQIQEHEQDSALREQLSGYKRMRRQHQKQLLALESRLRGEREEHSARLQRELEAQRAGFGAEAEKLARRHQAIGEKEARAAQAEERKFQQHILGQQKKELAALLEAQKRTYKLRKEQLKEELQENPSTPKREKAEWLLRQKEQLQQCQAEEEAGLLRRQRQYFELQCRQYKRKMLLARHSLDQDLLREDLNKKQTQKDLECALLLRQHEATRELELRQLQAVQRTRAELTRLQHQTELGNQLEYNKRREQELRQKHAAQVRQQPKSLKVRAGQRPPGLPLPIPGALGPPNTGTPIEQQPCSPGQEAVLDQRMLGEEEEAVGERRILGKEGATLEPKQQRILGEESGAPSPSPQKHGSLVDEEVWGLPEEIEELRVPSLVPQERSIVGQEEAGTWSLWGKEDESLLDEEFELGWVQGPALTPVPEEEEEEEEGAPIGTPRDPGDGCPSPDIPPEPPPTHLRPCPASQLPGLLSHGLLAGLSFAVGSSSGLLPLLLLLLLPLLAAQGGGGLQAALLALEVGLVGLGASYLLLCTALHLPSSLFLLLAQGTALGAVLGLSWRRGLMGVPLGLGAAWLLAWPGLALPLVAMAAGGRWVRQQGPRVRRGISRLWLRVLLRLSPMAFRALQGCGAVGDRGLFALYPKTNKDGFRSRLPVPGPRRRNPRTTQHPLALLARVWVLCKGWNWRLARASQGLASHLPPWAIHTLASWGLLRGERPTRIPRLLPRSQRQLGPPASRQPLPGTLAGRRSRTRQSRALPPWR

A further test concerns the target T2, PKCτ(h) (Homo sapiens, UniProt P41743).
T2 sequence (P41743 1-596): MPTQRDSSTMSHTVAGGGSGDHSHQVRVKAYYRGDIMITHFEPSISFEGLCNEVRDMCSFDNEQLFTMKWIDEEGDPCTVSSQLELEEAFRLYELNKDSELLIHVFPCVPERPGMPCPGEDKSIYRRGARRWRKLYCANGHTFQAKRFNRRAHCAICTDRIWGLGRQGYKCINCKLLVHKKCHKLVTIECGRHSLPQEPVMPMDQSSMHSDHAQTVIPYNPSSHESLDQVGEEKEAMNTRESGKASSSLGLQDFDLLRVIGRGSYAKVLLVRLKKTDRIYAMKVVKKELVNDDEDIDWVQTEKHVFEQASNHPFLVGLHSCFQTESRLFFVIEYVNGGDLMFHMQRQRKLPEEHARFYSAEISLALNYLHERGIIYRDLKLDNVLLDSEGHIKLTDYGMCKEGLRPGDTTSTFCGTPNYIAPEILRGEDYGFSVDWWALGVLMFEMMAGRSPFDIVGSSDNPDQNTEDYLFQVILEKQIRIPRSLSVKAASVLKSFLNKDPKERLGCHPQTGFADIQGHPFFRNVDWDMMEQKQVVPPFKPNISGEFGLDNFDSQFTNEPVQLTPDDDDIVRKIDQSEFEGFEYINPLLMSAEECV

Sequence of CHK2(I157T)(h) (O96017 whole entry I157T): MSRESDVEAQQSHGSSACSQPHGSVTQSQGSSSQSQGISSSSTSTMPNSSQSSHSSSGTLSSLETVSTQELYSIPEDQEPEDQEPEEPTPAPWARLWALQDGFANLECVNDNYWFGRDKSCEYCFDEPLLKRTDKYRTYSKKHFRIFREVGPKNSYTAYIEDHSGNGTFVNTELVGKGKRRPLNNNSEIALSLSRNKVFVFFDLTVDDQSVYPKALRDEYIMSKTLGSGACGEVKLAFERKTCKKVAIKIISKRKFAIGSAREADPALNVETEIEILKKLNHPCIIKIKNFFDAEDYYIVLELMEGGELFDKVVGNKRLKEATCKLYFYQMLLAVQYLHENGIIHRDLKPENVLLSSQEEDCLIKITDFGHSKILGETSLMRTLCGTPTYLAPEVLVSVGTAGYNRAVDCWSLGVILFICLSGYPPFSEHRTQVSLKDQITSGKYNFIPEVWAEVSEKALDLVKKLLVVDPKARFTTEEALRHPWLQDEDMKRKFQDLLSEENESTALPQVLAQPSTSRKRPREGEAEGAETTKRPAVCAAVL
Sequence of JAK2(h) (O60674 whole entry): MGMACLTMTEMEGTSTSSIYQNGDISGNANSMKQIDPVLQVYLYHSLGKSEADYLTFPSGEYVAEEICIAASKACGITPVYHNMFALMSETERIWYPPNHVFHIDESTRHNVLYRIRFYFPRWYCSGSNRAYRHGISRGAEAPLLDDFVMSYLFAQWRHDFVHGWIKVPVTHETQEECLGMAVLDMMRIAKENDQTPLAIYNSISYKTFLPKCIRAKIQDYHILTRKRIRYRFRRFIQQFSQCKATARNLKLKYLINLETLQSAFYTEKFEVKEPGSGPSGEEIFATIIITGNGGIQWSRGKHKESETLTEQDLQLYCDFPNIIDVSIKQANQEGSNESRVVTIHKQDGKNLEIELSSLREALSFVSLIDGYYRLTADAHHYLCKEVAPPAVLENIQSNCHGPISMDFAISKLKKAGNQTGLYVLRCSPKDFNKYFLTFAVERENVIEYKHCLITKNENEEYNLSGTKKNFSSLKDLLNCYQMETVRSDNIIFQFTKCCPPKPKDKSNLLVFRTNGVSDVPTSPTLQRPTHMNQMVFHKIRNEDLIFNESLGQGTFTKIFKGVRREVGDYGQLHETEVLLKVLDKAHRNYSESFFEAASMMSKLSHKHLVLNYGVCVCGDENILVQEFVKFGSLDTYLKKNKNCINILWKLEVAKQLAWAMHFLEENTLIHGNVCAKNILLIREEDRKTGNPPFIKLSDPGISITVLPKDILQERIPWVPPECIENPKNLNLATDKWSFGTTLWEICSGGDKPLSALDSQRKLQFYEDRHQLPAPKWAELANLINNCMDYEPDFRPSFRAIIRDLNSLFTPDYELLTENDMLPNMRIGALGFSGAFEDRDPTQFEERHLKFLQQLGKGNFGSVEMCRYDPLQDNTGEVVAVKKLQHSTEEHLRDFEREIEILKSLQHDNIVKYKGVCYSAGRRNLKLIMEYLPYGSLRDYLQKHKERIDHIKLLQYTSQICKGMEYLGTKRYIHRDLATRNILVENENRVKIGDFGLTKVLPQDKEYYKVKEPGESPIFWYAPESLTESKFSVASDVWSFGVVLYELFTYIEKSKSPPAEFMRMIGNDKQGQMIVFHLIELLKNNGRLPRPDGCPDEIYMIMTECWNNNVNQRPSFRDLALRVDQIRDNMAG
Sequence of PAK2(h) (Q13177 whole entry): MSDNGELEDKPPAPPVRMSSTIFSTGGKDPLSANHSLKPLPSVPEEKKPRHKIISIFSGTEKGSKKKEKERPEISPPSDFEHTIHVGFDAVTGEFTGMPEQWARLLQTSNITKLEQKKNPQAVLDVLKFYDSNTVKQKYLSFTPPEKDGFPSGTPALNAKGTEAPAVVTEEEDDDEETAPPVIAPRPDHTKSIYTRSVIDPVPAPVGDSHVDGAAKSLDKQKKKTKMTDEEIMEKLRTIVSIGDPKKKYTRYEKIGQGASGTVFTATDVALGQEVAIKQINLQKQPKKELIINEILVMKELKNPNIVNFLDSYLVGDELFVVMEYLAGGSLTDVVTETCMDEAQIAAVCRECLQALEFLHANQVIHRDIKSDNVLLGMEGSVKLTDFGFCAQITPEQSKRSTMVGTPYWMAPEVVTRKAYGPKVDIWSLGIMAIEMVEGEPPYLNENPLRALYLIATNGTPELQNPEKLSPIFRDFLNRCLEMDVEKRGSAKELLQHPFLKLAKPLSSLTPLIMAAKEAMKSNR
Sequence of MSSK1(h) (Q9UPE1 whole entry): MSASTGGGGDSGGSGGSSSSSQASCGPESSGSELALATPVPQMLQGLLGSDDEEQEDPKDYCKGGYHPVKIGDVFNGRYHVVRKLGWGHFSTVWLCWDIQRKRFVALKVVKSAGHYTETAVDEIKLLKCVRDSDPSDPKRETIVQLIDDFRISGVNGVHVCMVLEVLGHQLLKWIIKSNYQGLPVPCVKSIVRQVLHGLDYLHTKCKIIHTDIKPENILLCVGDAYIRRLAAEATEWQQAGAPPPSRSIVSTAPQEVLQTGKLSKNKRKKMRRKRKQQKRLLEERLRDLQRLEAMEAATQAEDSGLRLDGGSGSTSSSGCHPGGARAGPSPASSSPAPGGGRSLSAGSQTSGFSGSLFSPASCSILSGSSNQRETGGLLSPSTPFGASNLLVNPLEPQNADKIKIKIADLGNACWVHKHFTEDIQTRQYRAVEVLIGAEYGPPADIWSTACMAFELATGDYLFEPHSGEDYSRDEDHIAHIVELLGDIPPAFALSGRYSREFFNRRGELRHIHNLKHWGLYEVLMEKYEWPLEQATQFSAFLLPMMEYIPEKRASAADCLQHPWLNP
Sequence of CSK(h) (P41240 whole entry): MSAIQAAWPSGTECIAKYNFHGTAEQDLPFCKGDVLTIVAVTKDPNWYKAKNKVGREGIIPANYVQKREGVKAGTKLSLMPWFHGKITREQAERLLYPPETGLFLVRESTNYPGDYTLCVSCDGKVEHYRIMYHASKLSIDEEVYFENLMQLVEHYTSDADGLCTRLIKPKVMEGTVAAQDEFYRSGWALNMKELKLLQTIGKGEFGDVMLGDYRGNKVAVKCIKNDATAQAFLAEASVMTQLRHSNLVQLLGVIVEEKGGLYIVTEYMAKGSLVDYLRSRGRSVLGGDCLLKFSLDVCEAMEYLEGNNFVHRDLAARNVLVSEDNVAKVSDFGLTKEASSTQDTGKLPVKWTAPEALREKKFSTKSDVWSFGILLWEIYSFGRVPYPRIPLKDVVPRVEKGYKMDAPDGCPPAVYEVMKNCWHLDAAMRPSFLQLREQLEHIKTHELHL
Sequence of PTK5(h) (P42685 whole entry): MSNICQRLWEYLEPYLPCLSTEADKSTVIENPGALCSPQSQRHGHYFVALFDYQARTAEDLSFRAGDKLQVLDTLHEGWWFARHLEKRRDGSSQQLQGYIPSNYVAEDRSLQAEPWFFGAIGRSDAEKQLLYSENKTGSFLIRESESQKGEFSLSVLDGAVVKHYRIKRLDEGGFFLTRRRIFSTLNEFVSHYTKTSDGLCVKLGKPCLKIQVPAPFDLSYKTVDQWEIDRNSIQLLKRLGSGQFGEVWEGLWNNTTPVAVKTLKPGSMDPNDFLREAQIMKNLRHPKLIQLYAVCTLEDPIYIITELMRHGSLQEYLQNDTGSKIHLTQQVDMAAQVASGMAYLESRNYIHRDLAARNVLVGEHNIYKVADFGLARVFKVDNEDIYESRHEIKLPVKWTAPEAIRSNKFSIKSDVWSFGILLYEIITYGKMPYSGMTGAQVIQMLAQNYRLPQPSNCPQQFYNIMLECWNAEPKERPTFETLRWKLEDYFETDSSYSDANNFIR
Sequence of PKCδ(h) (Q05655 whole entry): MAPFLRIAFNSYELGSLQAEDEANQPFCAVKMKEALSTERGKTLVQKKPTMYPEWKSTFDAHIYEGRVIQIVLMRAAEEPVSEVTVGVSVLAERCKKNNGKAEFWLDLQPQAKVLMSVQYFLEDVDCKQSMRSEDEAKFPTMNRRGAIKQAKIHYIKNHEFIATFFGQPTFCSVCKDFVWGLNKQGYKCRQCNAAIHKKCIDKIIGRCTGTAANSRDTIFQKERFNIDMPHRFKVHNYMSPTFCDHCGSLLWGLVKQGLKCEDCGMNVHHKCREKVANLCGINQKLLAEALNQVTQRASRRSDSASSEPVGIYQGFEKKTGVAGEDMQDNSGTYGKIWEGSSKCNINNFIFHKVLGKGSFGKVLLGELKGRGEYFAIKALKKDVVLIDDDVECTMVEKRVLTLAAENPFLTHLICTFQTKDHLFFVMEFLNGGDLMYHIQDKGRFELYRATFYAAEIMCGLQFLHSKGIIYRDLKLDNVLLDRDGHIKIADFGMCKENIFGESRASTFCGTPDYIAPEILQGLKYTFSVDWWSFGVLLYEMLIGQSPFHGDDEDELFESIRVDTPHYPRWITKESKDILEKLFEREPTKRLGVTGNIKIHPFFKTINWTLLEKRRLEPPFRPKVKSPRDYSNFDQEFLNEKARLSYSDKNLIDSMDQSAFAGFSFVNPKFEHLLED

For H-YARAAARQARAKALARQLGVAA-OH [MMI-0100], the activity at 100 µM amounted to 95% on TAO2(h); 110% on PKCτ(h); 71% at PAK2(h); 89% at JAK2(h); 82% at MSSK1(h); 100% at PKCδ(h). Besides, the activity at 100 µM at EGFR(L861Q)(h) came out at 53%; on PTK5(h) it was 135%; at CSK(h), 70%; on CHK2(I157T)(h) it was 97%.

For the substance “HRRIKAWLKKIKALARQLGVAA (Mammalian) [MMI-0500]”, the “% activity” value is on record as 15% in the test with TAO2(h); 7% with PKCτ(h); 44% with PAK2(h); 49% in the test with JAK2(h); 22% with MSSK1(h); 61% with PKCδ(h). The “% activity” value with EGFR(L861Q)(h) turned out to be 15%; in the test with PTK5(h) it was 96%; with CSK(h), 2%; with CHK2(I157T)(h) it was 3%.

As to “YARAAARQARAKALNRQLGVA (Mammalian) [MMI-0200]”, the “% activity” value is reported as 93% with TAO2(h); 97% in the test with PKCτ(h); 69% with PAK2(h); 131% with JAK2(h); 100% with MSSK1(h); 101% in the test with PKCδ(h). Further, the “% activity” value in the test with EGFR(L861Q)(h) was 74%; in the test with PTK5(h) it was 108%; in the test with CSK(h), 33%; with CHK2(I157T)(h), 85%.
